Source: PMC8849337

What was measured:
Assay in all cases: pull-down
[1] = target: MBP–PPM-1.D–10×HIS (C. elegans)
[2] = target: MBP-3C–PPM-1.D–truncated–10×HIS (C. elegans)
[3] = target: PPM-1.D(568-766) (C. elegans)

fold binding relative to PPM-1.D lacking the C terminus [1]: 70 fold
fold binding relative to the MBP affinity tag (NRDE2∆N control) [2]: 4 times
fold less binding than PPM-1.D [3]: 10 times
fold more binding than PPM-1.D^trunc [3]: 7 times
B1: GST–CHK-2–3×FLAG (enzyme)
chain: MVRGTKRRRSSAEKPIVVVPVTRDDTMPVDEDLVVGESQCAASKPFAKLVGVRRGISSIDLADDHFVCGRGSDDAPTNFNFSQVAKDVGLYRFISKIQFSIDRDTETRRIYLHDHSRNGTLVNQEMIGKGLSRELMNGDLISIGIPALIIFVYESADADHHPEELTKKYHVTSHSLGKGGFGKVLLGYKKSDRSVVAIKQLNTQFSTRCSRAIAKTRDIRNEVEVMKKLSHPNIVAIYDWITVAKYSYMVIEYVGGGEFFSKVVDSKYNRMGLGESLGKYFAFQLIDAILYLHSVGICHRDIKPENILCSDKAERCILKLTDFGMAKNSVNRMKTRCGTPSYNAPEIVANEGVEYTPKVDIWSLGCVLFITFSGYPPFSEEYTDMTMDEQVLTGRLIFHAQWRRITVETQNMIKWMLTVEPSNRPSAVELMSTQWMKCADCRTAKQDILKSIKPISAAAPAALQTTQAGPVKKAKM
